Measured values as given in paper PMC10808224, “Lsr2 acts as a cyclic di-GMP receptor that promotes keto-mycolic acid synthesis and biofilm formation in mycobacteria” (Nature Communications, 2024).

Key:
[1] = target: Lsr2Msm (Mycobacterium smegmatis mc2 155) (UniProt A0R576); test: EMSA; settings: EMSA: 50 mM Tris-HCl pH 7.5, 50 mM NaCl, 10% glycerol, 30 uL, room temperature 15 min; 8% native PAGE in 0.5x TBE
[2] = target: Lsr2Mtb (Lsr2BCG in main text) (Mycobacterium tuberculosis) (UniProt P9WIP7); test: EMSA

| Sequence | binding [1] | binding [2] |
| --- | --- | --- |
| TAGTCGGGGTAGCGGTAGTGAGTCCCGATGATGTTTGCCGCGATGCTCATGTGTTCTCTGCTACTCCCGTGCTTCCAGCTTCAACTGCCCGGCTGCGGAAGCCTATCAGCGTGGGGGTTCAGCGAATGTCAGCGAAGGTCAGCGAAGGTCATGGCGGCGGGAGGCCACCGCGGCCAGCGCGCCGCCGAGCGCCCCTAGGGCCAGCGCGGACGGCACACCGATGCGGGCCGCTTTGCGGGCCGTGCGGAAGTCGCGGATCTCCCAGCCGCGTTCCCGCGCGACGTCGCGCAGCGCGGCGTC (double strand) [hadDMsmp] | binds | – |
| CCGCTCGGATCGGGGTTCCGTCGGCCCTGGCGCTGGGTGCGGCCGGCGGCGCGTTGGCGGCTCTAGCCTCTAGACGCCAATCACGCTGATAAGCTGCGCCGTTAGCCTGGCGACGATGCGGCCCGCGCAGCGGGGCGAGGAGGAGCCGGGCAATAGGGCCCAGCCTGGCGACGATGCGACCCGCGCAGCGGGGCGAGGAGGAGCCGGGCAATAGGGCTTAGCAACTATTCGAGCGGAGGGCGGCAGCGGCATGACAGTTCCCGAAGAAGCCCAGACACTGATCGGCAAGCATTATCGGGC (double strand) [hadDMtbp / hadDBCGp] | – | binds |
